No end group written: not given here.
Columns and labels:
[1] = molecular target: delta opioid receptor (DOR) (human) (UniProt P41143)
[2] = molecular target: mu opioid receptor (MOR) (human) (UniProt P35372)
[3] = molecular target: atypical chemokine receptor ACKR3 (formerly CXCR7) (human) (UniProt P25106)
[4] = molecular target: atypical chemokine receptor ACKR3 (formerly CXCR7) (human) (UniProt P25106); remark: listed apart in the source
[5] = molecular target: kappa opioid receptor (KOR) (human) (UniProt P41145)

Sequence of atypical chemokine receptor ACKR3 (formerly CXCR7) (human) (P25106 whole entry): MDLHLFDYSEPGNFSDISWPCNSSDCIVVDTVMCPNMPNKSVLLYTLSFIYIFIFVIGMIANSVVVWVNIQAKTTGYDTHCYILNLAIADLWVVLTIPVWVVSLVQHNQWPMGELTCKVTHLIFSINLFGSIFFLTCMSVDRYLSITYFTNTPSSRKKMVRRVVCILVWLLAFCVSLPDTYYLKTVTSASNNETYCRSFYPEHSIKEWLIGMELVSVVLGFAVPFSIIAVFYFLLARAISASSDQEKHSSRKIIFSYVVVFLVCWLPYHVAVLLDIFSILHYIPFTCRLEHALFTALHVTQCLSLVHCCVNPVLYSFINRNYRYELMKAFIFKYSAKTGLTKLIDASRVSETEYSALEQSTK

Binder	Supplementary Table 4: EC50 of β-arrestin-1 recruitment to DOR, U87 cells [1]	Supplementary Table 4: EC50 of β-arrestin-1 recruitment to MOR, U87 cells [2]	Supplementary Table 4: EC50 of β-arrestin-1 recruitment to ACKR3, U87 cells [3]	Supplementary Table 5: EC50 of β-arrestin-1 recruitment to ACKR3 [4]	Supplementary Table 4: EC50 of β-arrestin-1 recruitment to KOR, U87 cells [5]
YAGFMRRV-NH2 [adrenorphin-derived peptide YAGFMRRV]	2320 nM	1090 nM	611 nM		
FGGWMRRVR-NH2				6.16 nM	
YGAFMRRV-NH2 [adrenorphin-derived peptide YGAFMRRV]	1580 nM	> 10000 nM	263 nM		315 nM
YGGLMRRV-NH2 [adrenorphin-derived peptide YGGLMRRV]			10000 nM		
AGGFMRRV-NH2 [adrenorphin-derived peptide AGGFMRRV]			> 10000 nM		
YGGFMRRI-NH2 [adrenorphin-derived peptide YGGFMRRI]	320 nM	188 nM	115 nM		76.9 nM
YGGFMRRF-NH2 [adrenorphin-derived peptide YGGFMRRF]	212 nM	198 nM	73.5 nM		80.9 nM
YGGFMARV-NH2 [adrenorphin-derived peptide YGGFMARV]	147 nM	35.4 nM	5000 nM		2240 nM
AYGGFMRRV-NH2	637 nM	308 nM	330 nM		205 nM
FGGFMRRKR-NH2				1.12 nM	
YGGFMRAV-NH2 [adrenorphin-derived peptide YGGFMRAV]	308 nM	682 nM			1250 nM
YGGFARRV-NH2 [adrenorphin-derived peptide YGGFARRV]	> 10000 nM	> 10000 nM	5000 nM		656 nM
YGGFMRRK-NH2 [adrenorphin-derived peptide YGGFMRRK]	527 nM	252 nM	37 nM		19.2 nM
FGGWMRRV-NH2 [second-generation peptide FGGWMRRV]				10.5 nM	
YGGFMRRVC-NH2 (also: dimer of two chains) [adrenorphin-derived peptide (…)2]	253 nM	271 nM	52.9 nM		79.4 nM
LGGFMRRV-NH2 [adrenorphin-derived peptide LGGFMRRV]			261 nM		
FGGFMRRF-NH2 [second-generation peptide FGGFMRRF]				11 nM	
YGGFFRRV-NH2 [adrenorphin-derived peptide YGGFFRRV]	1310 nM	363 nM	1540 nM		194 nM
YSGFMRRV-NH2 [adrenorphin-derived peptide YSGFMRRV]			10000 nM		
FGGWMRRKR-NH2				7.34 nM	

Binder	Supplementary Table 4: EC50 of β-arrestin-1 recruitment to DOR, U87 cells [1]	Supplementary Table 4: EC50 of β-arrestin-1 recruitment to MOR, U87 cells [2]	Supplementary Table 4: EC50 of β-arrestin-1 recruitment to ACKR3, U87 cells [3]	Supplementary Table 5: EC50 of β-arrestin-1 recruitment to ACKR3 [4]	Supplementary Table 4: EC50 of β-arrestin-1 recruitment to KOR, U87 cells [5]
YGGFLRRV-NH2 [adrenorphin-derived peptide YGGFLRRV]	513 nM	880 nM	684 nM		31.9 nM
YGGFKRRV-NH2 [adrenorphin-derived peptide YGGFKRRV]			10000 nM		
YGGFMRRVA-NH2	272 nM	174 nM	72.3 nM		57.5 nM
YGSFMRRV-NH2 [adrenorphin-derived peptide YGSFMRRV]	> 10000 nM	> 10000 nM	668 nM		> 10000 nM
FGGFMRRVR-NH2				3.53 nM	
YGGFMRRQ-NH2 [adrenorphin-derived peptide YGGFMRRQ]	259 nM	183 nM	110 nM		63.1 nM
YGGFMRRVR-NH2	193 nM	58.7 nM	12.6 nM		21.9 nM
FGGFMRRV-NH2 [adrenorphin-derived peptide FGGFMRRV]			9.33 nM		
YGGFMRKV-NH2 [adrenorphin-derived peptide YGGFMRKV]	378 nM	786 nM	10000 nM		230 nM
YGGAMRRV-NH2 [adrenorphin-derived peptide YGGAMRRV]			10000 nM		
YGGYMRRV-NH2 [adrenorphin-derived peptide YGGYMRRV]			5000 nM		
YGGFNRRV-NH2 [adrenorphin-derived peptide YGGFNRRV]			10000 nM		508 nM
GGFMRRV-NH2 [adrenorphin-derived peptide - GGFMRRV]			> 10000 nM		
YGGFMRRL-NH2 [adrenorphin-derived peptide YGGFMRRL]	254 nM	294 nM	153 nM		71.2 nM
YGGFQRRV-NH2 [adrenorphin-derived peptide YGGFQRRV]	> 10000 nM	5000 nM	5000 nM		283 nM
YGGWMRRV-NH2 [adrenorphin-derived peptide YGGWMRRV]	1020 nM	522 nM	70.3 nM		> 10000 nM
YGGFMKRV-NH2 [adrenorphin-derived peptide YGGFMKRV]	360 nM	63.8 nM	5000 nM		416 nM
YGGFMRRA-NH2 [adrenorphin-derived peptide YGGFMRRA]	260 nM	265 nM	201 nM		132 nM
FGGWMRRK-NH2 [second-generation peptide FGGWMRRK]				4.39 nM	
YRGFMRRV-NH2 [adrenorphin-derived peptide YRGFMRRV]			5000 nM		

Reference: publication PMC7305236
